# Values of other authors, collected in publication PMC4620043.
# Like-named read-outs stand apart in the source and are kept apart here.
# How the values were obtained:
# fibrin (Homo sapiens) [1] = molecular target: fibrin (Homo sapiens) (UniProt P02671)
# fibrin (Homo sapiens) [2] = molecular target: fibrin (Homo sapiens) (UniProt P02671); remark: listed apart in the source
Substance,Kd (fibrin (Homo sapiens) [1]),Kd (fibrin (Homo sapiens) [2])
CREKA peptide,6 µM,–
GPRPP peptide,–,0.008 µM
